B1: Coiled-coil domain-containing protein 68 (Homo sapiens), Q9H2F9 (parent)
chain: MTTVTVTTEIPPRDKMEDNSALYESTSAHIIEETEYVKKIRTTLQKIRTQMFKDEIRHDSTNHKLDAKHCGNLQQGSDSEMDPSCCSLDLLMKKIKGKDLQLLEMNKENEVLKIKLQASREAGAAALRNVAQRLFENYQTQSEEVRKKQEDSKQLLQVNKLEKEQKLKQHVENLNQVAEKLEEKHSQITELENLVQRMEKEKRTLLERKLSLENKLLQLKSSATYGKSCQDLQREISILQEQISHLQFVIHSQHQNLRSVIQEMEGLKNNLKEQDKRIENLREKVNILEAQNKELKTQVALSSETPRTKVSKAVSTSELKTEGVSPYLMLIRLRK
B2: DNA topoisomerase 3-beta-1 (Homo sapiens), O95985 (parent)
chain: MKTVLMVAEKPSLAQSIAKILSRGSLSSHKGLNGACSVHEYTGTFAGQPVRFKMTSVCGHVMTLDFLGKYNKWDKVDPAELFSQAPTEKKEANPKLNMVKFLQVEGRGCDYIVLWLDCDKEGENICFEVLDAVLPVMNKAHGGEKTVFRARFSSITDTDICNAMACLGEPDHNEALSVDARQELDLRIGCAFTRFQTKYFQGKYGDLDSSLISFGPCQTPTLGFCVERHDKIQSFKPETYWVLQAKVNTDKDRSLLLDWDRVRVFDREIAQMFLNMTKLEKEAQVEATSRKEKAKQRPLALNTVEMLRVASSSLGMGPQHAMQTAERLYTQGYISYPRTETTHYPENFDLKGSLRQQANHPYWADTVKRLLAEGINRPRKGHDAGDHPPITPMKSATEAELGGDAWRLYEYITRHFIATVSHDCKYLQSTISFRIGPELFTCSGKTVLSPGFTEVMPWQSVPLEESLPTCQRGDAFPVGEVKMLEKQTNPPDYLTEAELITLMEKHGIGTDASIPVHINNICQRNYVTVESGRRLKPTNLGIVLVHGYYKIDAELVLPTIRSAVEKQLNLIAQGKADYRQVLGHTLDVFKRKFHYFVDSIAGMDELMEVSFSPLAATGKPLSRCGKCHRFMKYIQAKPSRLHCSHCDETYTLPQNGTIKLYKELRCPLDDFELVLWSSGSRGKSYPLCPYCYNHPPFRDMKKGMGCNECTHPSCQHSLSMLGIGQCVECESGVLVLDPTSGPKWKVACNKCNVVAHCFENAHRVRVSADTCSVCEAALLDVDFNKAKSPLPGDETQHMGCVFCDPVFQELVELKHAASCHPMHRGGPGRRQGRGRGRARRPPGKPNPRRPKDKMSALAAYFV
partner: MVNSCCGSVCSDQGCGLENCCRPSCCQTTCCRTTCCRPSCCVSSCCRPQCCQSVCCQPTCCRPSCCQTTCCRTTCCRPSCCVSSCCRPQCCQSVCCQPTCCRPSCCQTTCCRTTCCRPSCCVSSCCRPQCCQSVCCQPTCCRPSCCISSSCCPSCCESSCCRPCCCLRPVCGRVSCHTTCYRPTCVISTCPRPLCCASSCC
B3: Melanoma-associated antigen 8 (Homo sapiens), P43361 (parent)
chain: MLLGQKSQRYKAEEGLQAQGEAPGLMDVQIPTAEEQKAASSSSTLIMGTLEEVTDSGSPSPPQSPEGASSSLTVTDSTLWSQSDEGSSSNEEEGPSTSPDPAHLESLFREALDEKVAELVRFLLRKYQIKEPVTKAEMLESVIKNYKNHFPDIFSKASECMQVIFGIDVKEVDPAGHSYILVTCLGLSYDGLLGDDQSTPKTGLLIIVLGMILMEGSRAPEEAIWEALSVMGLYDGREHSVYWKLRKLLTQEWVQENYLEYRQAPGSDPVRYEFLWGPRALAETSYVKVLEHVVRVNARVRISYPSLHEEALGEEKGV
partner: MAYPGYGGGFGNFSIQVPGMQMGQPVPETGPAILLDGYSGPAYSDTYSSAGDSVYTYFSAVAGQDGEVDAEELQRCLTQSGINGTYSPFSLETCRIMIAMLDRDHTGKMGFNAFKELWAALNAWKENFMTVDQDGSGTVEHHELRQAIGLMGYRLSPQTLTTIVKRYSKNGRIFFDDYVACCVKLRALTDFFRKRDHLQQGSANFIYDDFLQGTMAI
B4: Calcium-binding and coiled-coil domain-containing protein 2 (Homo sapiens), Q13137 (parent)
chain: MEETIKDPPTSAVLLDHCHFSQVIFNSVEKFYIPGGDVTCHYTFTQHFIPRRKDWIGIFRVGWKTTREYYTFMWVTLPIDLNNKSAKQQEVQFKAYYLPKDDEYYQFCYVDEDGVVRGASIPFQFRPENEEDILVVTTQGEVEEIEQHNKELCKENQELKDSCISLQKQNSDMQAELQKKQEELETLQSINKKLELKVKEQKDYWETELLQLKEQNQKMSSENEKMGIRVDQLQAQLSTQEKEMEKLVQGDQDKTEQLEQLKKENDHLFLSLTEQRKDQKKLEQTVEQMKQNETTAMKKQQELMDENFDLSKRLSENEIICNALQRQKERLEGENDLLKRENSRLLSYMGLDFNSLPYQVPTSDEGGARQNPGLAYGNPYSGIQESSSPSPLSIKKCPICKADDICDHTLEQQQMQPLCFNCPICDKIFPATEKQIFEDHVFCHSL
partner: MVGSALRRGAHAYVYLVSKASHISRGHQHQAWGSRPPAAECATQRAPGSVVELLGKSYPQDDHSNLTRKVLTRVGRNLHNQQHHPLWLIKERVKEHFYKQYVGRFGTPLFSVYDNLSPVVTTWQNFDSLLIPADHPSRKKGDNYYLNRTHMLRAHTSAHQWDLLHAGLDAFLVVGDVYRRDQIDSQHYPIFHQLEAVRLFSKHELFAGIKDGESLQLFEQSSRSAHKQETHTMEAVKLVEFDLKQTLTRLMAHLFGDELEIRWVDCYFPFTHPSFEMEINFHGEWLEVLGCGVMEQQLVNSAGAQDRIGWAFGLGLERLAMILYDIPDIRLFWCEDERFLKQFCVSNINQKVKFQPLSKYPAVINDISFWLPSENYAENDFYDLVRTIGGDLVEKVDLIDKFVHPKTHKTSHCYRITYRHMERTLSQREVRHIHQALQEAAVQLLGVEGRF
B5: Guanine nucleotide exchange factor for Rab-3A (Homo sapiens), Q8TBN0 (parent)
chain: MWSGPPQPDQGLPPPLAAVPVPWKSTDPCQGHRESPGALVETSAGEEAQGQEGPAAAQLDVLRLRSSSMEIREKGSEFLKEELHRAQKELKLKDEECERLSKVREQLEQELEELTASLFEEAHKMVREANMKQAASEKQLKEARGKIDMLQAEVTALKTLVITSTPASPNRELHPQLLSPTKAGPRKGHSRHKSTSSTLCPAVCPAAGHTLTPDREGKEVDTILFAEFQAWRESPTLDKTCPFLERVYREDVGPCLDFTMQELSVLVRAAVEDNTLTIEPVASQTLPTVKVAEVDCSSTNTCALSGLTRTCRHRIRLGDSKSHYYISPSSRARITAVCNFFTYIRYIQQGLVRQDAEPMFWEIMRLRKEMSLAKLGFFPQEA
B6: Four and a half LIM domains protein 2 (Homo sapiens), Q14192 (parent)
chain: MTERFDCHHCNESLFGKKYILREESPYCVVCFETLFANTCEECGKPIGCDCKDLSYKDRHWHEACFHCSQCRNSLVDKPFAAKEDQLLCTDCYSNEYSSKCQECKKTIMPGTRKMEYKGSSWHETCFICHRCQQPIGTKSFIPKDNQNFCVPCYEKQHAMQCVQCKKPITTGGVTYREQPWHKECFVCTACRKQLSGQRFTARDDFAYCLNCFCDLYAKKCAGCTNPISGLGGTKYISFEERQWHNDCFNCKKCSLSLVGRGFLTERDDILCPDCGKDI
partner: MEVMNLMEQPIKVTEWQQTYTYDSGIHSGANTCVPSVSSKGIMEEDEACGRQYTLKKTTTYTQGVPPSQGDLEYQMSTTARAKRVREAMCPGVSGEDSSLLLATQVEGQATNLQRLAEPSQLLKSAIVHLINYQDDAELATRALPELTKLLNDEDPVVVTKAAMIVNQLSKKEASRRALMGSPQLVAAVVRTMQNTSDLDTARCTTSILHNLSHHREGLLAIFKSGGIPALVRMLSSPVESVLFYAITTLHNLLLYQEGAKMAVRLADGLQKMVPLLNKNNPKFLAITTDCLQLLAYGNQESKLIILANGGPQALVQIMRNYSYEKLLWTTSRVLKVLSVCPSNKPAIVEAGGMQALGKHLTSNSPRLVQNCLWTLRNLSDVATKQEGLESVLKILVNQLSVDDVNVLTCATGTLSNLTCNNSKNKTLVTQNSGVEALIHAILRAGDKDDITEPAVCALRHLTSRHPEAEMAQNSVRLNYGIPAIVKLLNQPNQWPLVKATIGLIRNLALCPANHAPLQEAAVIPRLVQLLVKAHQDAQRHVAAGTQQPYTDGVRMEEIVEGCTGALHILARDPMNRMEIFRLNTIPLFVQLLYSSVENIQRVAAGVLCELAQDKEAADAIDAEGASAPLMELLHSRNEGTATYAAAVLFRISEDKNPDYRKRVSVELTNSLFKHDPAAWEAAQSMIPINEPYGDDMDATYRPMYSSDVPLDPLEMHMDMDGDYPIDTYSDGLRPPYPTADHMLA

Variants of B1 are the subject of one assay. The following applies: with tfp11_human TFIP11, Q9UBB9.
tfp11_human TFIP11, Q9UBB9, sequence (Q9UBB9 whole entry): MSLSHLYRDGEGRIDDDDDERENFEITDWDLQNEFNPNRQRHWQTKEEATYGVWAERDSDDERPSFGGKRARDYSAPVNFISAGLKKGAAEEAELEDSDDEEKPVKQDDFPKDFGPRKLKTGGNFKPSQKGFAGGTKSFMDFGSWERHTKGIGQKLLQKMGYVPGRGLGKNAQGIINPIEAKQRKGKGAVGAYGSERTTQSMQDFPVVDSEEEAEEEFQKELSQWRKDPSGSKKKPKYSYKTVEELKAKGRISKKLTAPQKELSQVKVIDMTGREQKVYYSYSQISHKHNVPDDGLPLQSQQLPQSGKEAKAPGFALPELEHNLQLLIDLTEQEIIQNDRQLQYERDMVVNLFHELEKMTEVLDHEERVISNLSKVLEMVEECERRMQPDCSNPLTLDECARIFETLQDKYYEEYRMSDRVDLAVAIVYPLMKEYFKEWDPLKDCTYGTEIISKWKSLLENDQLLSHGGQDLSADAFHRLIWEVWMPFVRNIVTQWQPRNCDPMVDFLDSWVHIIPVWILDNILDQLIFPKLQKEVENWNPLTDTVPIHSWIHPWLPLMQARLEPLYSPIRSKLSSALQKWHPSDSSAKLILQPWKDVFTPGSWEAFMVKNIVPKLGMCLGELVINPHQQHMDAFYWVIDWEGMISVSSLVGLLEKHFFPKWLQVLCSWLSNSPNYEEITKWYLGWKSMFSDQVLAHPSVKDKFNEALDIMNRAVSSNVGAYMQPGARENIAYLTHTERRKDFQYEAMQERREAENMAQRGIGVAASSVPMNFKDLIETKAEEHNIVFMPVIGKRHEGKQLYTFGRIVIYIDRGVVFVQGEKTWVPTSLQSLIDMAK
Regarding V249A, the “effect of a mutation on the interaction” value is “with no effect”.
The same measure, in the same setting: under D151G stands “with no effect”; under L100V, “with no effect”.

Variants of B2 are the subject of a further assay. Conditions: with kr412_human KRTAP4-12, Q9BQ66.
As to R267W, the “effect of a mutation on the interaction” value is “with no effect”.

In another assay the parent is B3. The following applies: with gran_human GCA.
Take R9C: the “effect of a mutation on the interaction” value is on record as “with no effect”.
For R121H, the “effect of a mutation on the interaction” value is recorded as “with no effect”.

Another assay covers variants of B4. Conditions: with syfm_human FARS2, O95363.
Take E222K: the “effect of a mutation on the interaction” value was “with no effect”.

The variants in the next assay derive from B5. Conditions: with rb11a_human RAB11A.
Consider S190P, for which the “effect of a mutation on the interaction” value is on record as “with no effect”.
T26A: the “effect of a mutation on the interaction” value is listed as “with no effect”.
H323Y: the “effect of a mutation on the interaction” value was “with no effect”.

Variants of B6 are the subject of the next assay. The following applies: with plak_human JUP.
For the variant A37S, the “effect of a mutation on the interaction” value is reported as “with no effect”.
N95K: the “effect of a mutation on the interaction” value was “disrupting interaction strength”.

The values are drawn from IntAct's records for PubMed 31515488.
